Bridges are numbered along the chain shown (N, C = ends).
Tests used:
[1] = molecular target: C5a receptor (C5aR) (human) (UniProt P21730); assay: cell-based or functional assay
[2] = molecular target: complement component C3 (native C3) (human, UniProt P01024 23-1663); assay: cell-based or functional assay
complement component C3 (native C3), sequence (P01024 23-1663 limits assumed): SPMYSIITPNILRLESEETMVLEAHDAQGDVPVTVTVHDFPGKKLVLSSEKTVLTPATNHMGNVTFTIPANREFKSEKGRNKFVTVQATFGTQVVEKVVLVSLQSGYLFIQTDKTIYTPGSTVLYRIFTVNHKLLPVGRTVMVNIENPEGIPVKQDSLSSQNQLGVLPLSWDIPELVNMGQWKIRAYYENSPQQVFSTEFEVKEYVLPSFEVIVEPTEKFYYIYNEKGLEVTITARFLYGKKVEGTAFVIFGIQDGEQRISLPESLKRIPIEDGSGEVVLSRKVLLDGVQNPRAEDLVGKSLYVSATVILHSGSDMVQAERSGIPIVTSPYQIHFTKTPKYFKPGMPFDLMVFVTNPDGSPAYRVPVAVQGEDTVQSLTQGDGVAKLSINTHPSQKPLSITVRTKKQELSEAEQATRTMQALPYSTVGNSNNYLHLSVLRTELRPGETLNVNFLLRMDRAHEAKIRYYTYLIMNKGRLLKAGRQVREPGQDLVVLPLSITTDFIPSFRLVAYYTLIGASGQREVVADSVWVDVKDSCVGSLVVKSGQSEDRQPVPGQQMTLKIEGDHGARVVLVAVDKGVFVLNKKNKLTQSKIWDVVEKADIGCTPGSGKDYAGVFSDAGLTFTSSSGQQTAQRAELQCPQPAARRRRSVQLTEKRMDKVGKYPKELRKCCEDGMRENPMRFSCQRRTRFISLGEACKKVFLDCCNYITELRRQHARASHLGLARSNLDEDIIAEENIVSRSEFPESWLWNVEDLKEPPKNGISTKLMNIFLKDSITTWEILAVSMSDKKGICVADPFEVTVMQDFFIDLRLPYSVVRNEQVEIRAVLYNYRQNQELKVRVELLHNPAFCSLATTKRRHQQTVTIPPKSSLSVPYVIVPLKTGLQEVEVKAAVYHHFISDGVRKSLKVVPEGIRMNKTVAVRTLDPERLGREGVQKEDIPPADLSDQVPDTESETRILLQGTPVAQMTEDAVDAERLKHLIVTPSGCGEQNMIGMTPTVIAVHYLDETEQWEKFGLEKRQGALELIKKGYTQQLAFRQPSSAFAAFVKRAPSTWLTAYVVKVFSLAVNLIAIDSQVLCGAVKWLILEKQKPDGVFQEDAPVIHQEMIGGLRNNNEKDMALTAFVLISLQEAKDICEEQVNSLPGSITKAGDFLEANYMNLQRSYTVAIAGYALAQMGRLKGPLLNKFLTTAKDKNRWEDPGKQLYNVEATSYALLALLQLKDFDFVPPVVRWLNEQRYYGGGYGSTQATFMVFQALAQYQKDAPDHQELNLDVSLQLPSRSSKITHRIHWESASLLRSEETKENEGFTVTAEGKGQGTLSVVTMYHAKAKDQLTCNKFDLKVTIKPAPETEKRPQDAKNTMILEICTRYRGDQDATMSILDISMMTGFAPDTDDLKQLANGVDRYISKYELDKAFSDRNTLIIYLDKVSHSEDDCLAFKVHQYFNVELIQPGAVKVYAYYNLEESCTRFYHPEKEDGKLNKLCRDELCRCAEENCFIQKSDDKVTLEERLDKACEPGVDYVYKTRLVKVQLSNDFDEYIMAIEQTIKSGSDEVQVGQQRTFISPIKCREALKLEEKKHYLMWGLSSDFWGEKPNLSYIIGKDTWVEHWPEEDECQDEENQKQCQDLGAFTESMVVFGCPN

C5a receptor (C5aR) (human), sequence (P21730 whole entry): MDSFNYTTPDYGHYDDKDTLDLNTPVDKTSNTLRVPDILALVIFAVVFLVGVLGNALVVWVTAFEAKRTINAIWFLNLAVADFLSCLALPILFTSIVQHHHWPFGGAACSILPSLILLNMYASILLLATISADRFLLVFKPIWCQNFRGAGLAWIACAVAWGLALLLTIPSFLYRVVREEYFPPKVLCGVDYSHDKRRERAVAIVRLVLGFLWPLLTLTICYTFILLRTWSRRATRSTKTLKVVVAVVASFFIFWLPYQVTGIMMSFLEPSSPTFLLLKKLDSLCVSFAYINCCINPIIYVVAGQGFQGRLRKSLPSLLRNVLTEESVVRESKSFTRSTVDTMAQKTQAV

What does the source list for “small cyclic hexapeptide (AcF-[OPdChaWR]), selective C5aR antagonist”?
TF mRNA expression in PMNs (real time RT-PCR) after C5aR antagonism (fold decrease) [1]: 2.14; modified prothrombin time (mPT) of PMN supernatants; healthy serum preincubated with filter fibers, with C5aR antagonist [1]: 29.1 s; modified prothrombin time (mPT) of PMN supernatants; predialysis ESRD serum preincubated with filter fibers, with C5aR antagonist [1]: 26.1 s; modified prothrombin time (mPT) of supernatants of PMNs preincubated with C5aR antagonist (10 µM-30 min) [1]: 31.6 s

B1: Compstatin, a 13-residue cyclic peptide (Ac-I[CVWQDWGAHRTC]TNH2) (peptide)
peptide: Ac-ICVWQDWGAHRTCT-NH2
modifications: disulfide 2-13
SMILES: CC[C@H](C)[C@H](NC(C)=O)C(=O)N[C@H]1CSSC[C@@H](C(=O)N[C@H](C(N)=O)[C@@H](C)O)NC(=O)[C@H]([C@@H](C)O)NC(=O)[C@H](CCCNC(=N)N)NC(=O)[C@H](Cc2c[nH]cn2)NC(=O)[C@H](C)NC(=O)CNC(=O)[C@H](Cc2c[nH]c3ccccc23)NC(=O)[C@H](CC(=O)O)NC(=O)[C@H](CCC(N)=O)NC(=O)[C@H](Cc2c[nH]c3ccccc23)NC(=O)[C@H](C(C)C)NC1=O
What does the source list for B1?
TF mRNA expression in PMNs (real time RT-PCR) after Compstatin addition [2]: 2.79 fold decrease; intracellular TF protein in PMNs, MFI fold expression (flow cytometry); fiber-activated healthy serum blocked with Compstatin [2]: 1.01 MFI fold expression

From patent US20110269113A1 (University of Pennsylvania, published 2011)
